# Data as given in US20180215801A1.
# pKd: −log10 of the molar value.
# Target: Activin B (UniProt P09529)
# Experiment: SPR (Biacore 2000), Fc fusion captured on anti-human Fc chip, ligand injected, 1:1 Langmuir fit
# Activin B, sequence (P09529 293-407 limits assumed): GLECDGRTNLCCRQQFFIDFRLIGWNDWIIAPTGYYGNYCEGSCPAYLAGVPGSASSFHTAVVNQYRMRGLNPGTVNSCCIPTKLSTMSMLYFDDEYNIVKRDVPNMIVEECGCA
substance,measurement,value
BMPRII-Fc (BMPRII (1-120) fused to hIgG1-Fc) (from UniProt Q13873 27-120) (Fc fusion),pKd,9.10
same,koff,0.00042 s⁻¹
same,kon,510000 M⁻¹ s⁻¹
